Data on three molecules can be found in US20260098866A1 (REMEGEN, published 2026).

Broadly, the Kd is the concentration at which binding is half-saturated. Read a low Kd as tighter binding. The term koff denotes the rate constant with which the complex falls apart. Read a high koff as a short-lived complex. A word on the kon: it is the second-order rate constant of association. Low values mean slower complex formation, high ones faster complex formation.

Test [1] addresses T1, telitacicept.
T1 construct: TACI-Fc fusion protein drug; also called Tai ai; TACI-Fc fusion protein
T1 chain: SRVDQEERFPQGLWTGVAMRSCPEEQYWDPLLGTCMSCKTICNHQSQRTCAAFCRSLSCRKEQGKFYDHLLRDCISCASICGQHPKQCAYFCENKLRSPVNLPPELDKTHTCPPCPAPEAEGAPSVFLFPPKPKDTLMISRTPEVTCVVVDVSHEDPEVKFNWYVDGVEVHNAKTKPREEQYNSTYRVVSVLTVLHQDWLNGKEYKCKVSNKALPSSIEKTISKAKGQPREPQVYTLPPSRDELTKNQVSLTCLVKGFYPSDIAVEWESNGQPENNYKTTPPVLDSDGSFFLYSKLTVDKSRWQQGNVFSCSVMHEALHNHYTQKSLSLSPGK
The test is described as follows: competition ELISA; BLyS coated; 30 ng/ml telitacicept pre-incubated with 10-fold diluted supernatant; telitacicept bound to BLyS read with anti-human IgG Fc-HRP. The protocol:
(§1) The hybridoma cells were cultured, and the supernatants were used for enzyme-linked immunosorbent assay (ELISA). BLyS (R&D Systems) was coated on a 96-well microplate and incubated at 4° C. overnight. The plate was blocked with 300 μl of 3% BSA-PBST per well and incubated at 37° C. for 3 h. The supernatants were diluted at ratios of 10-fold, 100-fold and 1000-fold with PBST and separately incubated with 30 ng/ml telitacicept for a given period. These mixtures were then added to the 96-well plate at 100 μl per well and incubated at 37° C. for 1 h. Goat anti-human IgG Fc-HRP (1:5000 dilution) was added at 100 μl per well and incubated at 37° C. for 1 h. 100 μL of substrate per well was added for color development, and the absorbance was read at 450 nm and 655 nm. Antibodies with high activity were screened based on the difference in absorbance between 450 nm and 655 nm, respectively.
On the technique in general: In an ELISA, binding on a coated surface is turned into a signal by an enzyme label.

Test [2] concerns the target T1, telitacicept. Description: competition ELISA; BLyS coated; 30 ng/ml telitacicept pre-incubated with 100-fold diluted supernatant; telitacicept bound to BLyS read with anti-human IgG Fc-HRP. The protocol:
as §1

Test [3] deals with T1, telitacicept. Description: competition ELISA; BLyS coated; 30 ng/ml telitacicept pre-incubated with 1000-fold diluted supernatant; telitacicept bound to BLyS read with anti-human IgG Fc-HRP. Here is the method: as §1
The target of test [4] is T1, telitacicept. Description: BLI (Octet RH16); biotinylated 1B11D2 on SA biosensors, telitacicept as analyte; kinetic fit. Here is the method:
An Octet RH16 molecular interaction analyzer (Sartorius) was used. An appropriate amount of antibody 1B11D2 reacted with EZ-Link Sulfo-NHS-LC-LC-Biotin ([…]) at room temperature for 30 min followed by centrifugation with a Zeba spin desalting column to collect the biotinylated antibody 1B11D2.
The biotinylated antibody 1B11D2 was immobilized on Octet SA Biosensors ([…]) and telitacicept at various concentrations was used as the analyte. The detection curve was fitted by kinetic analysis to obtain the results.
A general note: BLI is a label-free optical method that tracks binding on a fibre tip over time.

B1: antibody 12C9F3 (antibody, mouse IgG1, kappa, V domains shown)
VH: EVQLQQSGPELVKPGASVKISCKTSGYTFTEYAMHWVKQSHGKSLEWIGGINPNHGGTSNNQKFKGKATLTVDKSSSTAYMDFRSLTSEDSAVYYCARWGTDPFFAYWGQGTLVTVSA
VL: DIVMTQSHKFMSTSVGDRVSITCKASQDVSTAVAWYQQKPGQSPKLLIYWASTRHTGVPDRFTGSGSGTDYTLTITSVQAEDLTLYYCHQHYAPPWTFGGGTKLEIKR
notes: Mouse hybridoma antibody, purified from the culture supernatant of cell line 12C9F3-1; The printed chains seem to include a leader peptide, but no cleavage site is stated; also called 12C9F3-1 (hybridoma cell line / culture supernatant)
Consider B1, for which the entries for the “Absorbance (450 nm - 655 nm)” value in the test with telitacicept [1], with telitacicept [2] and with telitacicept [3] were 0.082, 0.242 and 0.443, respectively.

B2: antibody 7G12F8 (antibody, mouse IgG1, kappa, V domains shown)
VH: EVQLQQSGPELVRPGASVKKSCKTSGYTFTAYALHWVKQSHGTSLEWIGGINPNHGGVSYNQKFKDKATLTVDKSSSTAYMELRSLTSEDSAVYYCARFRWDLYYGMDYWGQGTSVIVAS
VL: QIVLTQSPAIISVSSGEKVTMPCSDNSNMIYMYWNLWKPGTSPKRWIYDTSRLASGVPARFSGSGFGTSFSLTVSSMEAEDAATYYCHQRSIYSWTFGGGTKLEIKR
notes: Mouse hybridoma antibody, purified from the culture supernatant of cell line 7G12F8-1; The printed chains seem to include a leader peptide, but no cleavage site is stated; also called 7G12F8-1 (hybridoma cell line / culture supernatant)
For B2, the “Absorbance (450 nm - 655 nm)” value with telitacicept [1] is 0.057; with telitacicept [2], 0.215; in the test with telitacicept [3], 0.448.

B3: antibody 1B11D2 (antibody, mouse IgG1, kappa, V domains shown)
VH: EVQLQQSGPELVKPGASVKISCKTSGYTFTEFSMHWVQQSHGKSLEWIGGINPNHGGSSYNQKFKGKATLTVDKSSSTAYMELRSLTSEDSAVYYCARRGDYYGNLYYAMDYWGQGTSVTVSS
VL: SIVMTQTPKFLLVSVGDSITITCKASQSVSNDVVWYQQKPGQSPKLLIYYASNRYTGVPDRFTGSGYGTDFTFTITTVQAEDLAVYFCQQDYSSPWAFGGGTKLEIKR
notes: Mouse hybridoma antibody, purified from the culture supernatant of cell line 1B11D2-1; The printed heavy and light chains start with what looks like a leader peptide (MGWSW..., MKSQT...); also called 1B11D2-1 (hybridoma cell line / culture supernatant); TACI antibody (1B11D2)
In the test with telitacicept [4], B3 showed a Kd of 0.325 nM. The koff in the test with telitacicept [4] turned out to be 0.000105 s⁻¹. Besides, in the test with telitacicept [4], the kon was found to be 323000 M⁻¹ s⁻¹. Further, the entries for the “Absorbance (450 nm - 655 nm)” value in the test with telitacicept [1], with telitacicept [2] and with telitacicept [3] were 0.016, 0.141 and 0.454, respectively.
